The Kd is a measure of binding affinity in units of concentration. Read a high Kd as a looser complex. The term stoichiometry N denotes a count of units in the complex or per binding partner.

Read-outs that look alike come from different tables or passages of the source.

Data set [1] concerns the target T1, EnuR (Ruegeria pomeroyi, UniProt Q5LUA6).
T1 construct: gene gntR; full-length EnuR with C-terminal Strep-tag-II, PLP-containing
T1 sequence (Q5LUA6 1-464): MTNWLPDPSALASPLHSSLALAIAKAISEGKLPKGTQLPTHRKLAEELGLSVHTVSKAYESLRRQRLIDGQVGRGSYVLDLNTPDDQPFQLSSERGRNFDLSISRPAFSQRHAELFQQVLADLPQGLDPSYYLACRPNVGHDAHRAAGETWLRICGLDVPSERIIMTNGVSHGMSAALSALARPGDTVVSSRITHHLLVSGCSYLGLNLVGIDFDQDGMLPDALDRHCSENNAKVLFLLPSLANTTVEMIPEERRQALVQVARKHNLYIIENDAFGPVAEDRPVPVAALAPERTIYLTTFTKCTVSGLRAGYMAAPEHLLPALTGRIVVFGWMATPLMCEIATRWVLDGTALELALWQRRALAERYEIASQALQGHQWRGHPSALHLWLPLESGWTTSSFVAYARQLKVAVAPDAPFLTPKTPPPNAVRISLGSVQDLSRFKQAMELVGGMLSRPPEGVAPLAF
In words: microscale thermophoresis. It is filed as binding. On the technique in general: MST reads how a fluorescent partner responds to local heating, with and without ligand.

For data set [2], the target named is T2, EnuR (Ruegeria pomeroyi, UniProt Q5LUA6).
T2 construct: gene gntR; full-length EnuR with C-terminal Strep-tag-II, PLP-containing
In words: microscale thermophoresis. Format: binding. The source holds these as a separate data set.

Data set [3] concerns the target C-terminal aminotransferase domain (ATD) of wild-type EnuR from Ruegeria pomeroyi DSS-3, Strep-tag II fusion (Ruegeria pomeroyi DSS-3). Put plainly: SEC; HiLoad 16/600 Superdex 200 pg column; masses estimated against marker proteins (thyroglobulin, alcohol dehydrogenase, bovine albumin, carbonic anhydrase); quaternary assembly of the Strep-Tactin purified proteins.
In data set [4] the target is C-terminal aminotransferase domain of the EnuR* (Lys302His) mutant from Ruegeria pomeroyi DSS-3, Strep-tag II fusion (Ruegeria pomeroyi DSS-3). The description is as above.
For data set [5], the target named is Ectoine nutrient utilization regulator (EnuR) from Ruegeria pomeroyi DSS-3, full-length wild type, EnuR-Strep-tag II (Ruegeria pomeroyi DSS-3). Described as above.
Data set [6] has as its target EnuR* (Lys302His) mutant of full-length EnuR from Ruegeria pomeroyi DSS-3, EnuR*-Strep-tag II (Ruegeria pomeroyi DSS-3). The data set is described as above.
Data set [7] deals with EnuR (C-terminal Strep-tag II fusion, PLP-bound) (Ruegeria pomeroyi DSS-3). Put plainly: MST. Particulars: PLP-containing EnuR, 200 nM; MST: 10 mM Tris-HCl pH 7.5, 150 mM NaCl, 0.07% Tween20, 21 C; 200 nM NT-647-labeled EnuR titrated with DNA.

At EnuR [1], `CC(=O)N[C@H](C(=O)O)[C@@H](O)CN` [hydroxy-α-ADABA] returned a Kd of 0.43 ± 0.2 µM.
In turn, `CC(=O)N[C@@H](CCN)C(=O)O` [α-ADABA] yielded a Kd on EnuR [2] of 2.55 ± 0.5 µM.
For “C-terminal aminotransferase domain (ATD) of wild-type EnuR from Ruegeria pomeroyi DSS-3, Strep-tag II fusion (domain or fragment)”, the stoichiometry N in data set [3] was 2.
In the case of “C-terminal aminotransferase domain of the EnuR* (Lys302His) mutant from Ruegeria pomeroyi DSS-3, Strep-tag II fusion (domain or fragment)”, in data set [4], the stoichiometry N was 2.
For the compound “Ectoine nutrient utilization regulator (EnuR) from Ruegeria pomeroyi DSS-3, full-length wild type, EnuR-Strep-tag II (natural protein)”, the stoichiometry N in data set [5] was 2.
Consider “EnuR* (Lys302His) mutant of full-length EnuR from Ruegeria pomeroyi DSS-3, EnuR*-Strep-tag II (natural protein)”, for which the stoichiometry N in data set [6] was 2.
As for “TAACATTGTCGCGCGACAATAAAAAAATTGACATGCAGTACAATTCCC (double strand) [MST BS WT 48 bp promoter/operator fragment]”, the Kd in data set [7] stood at 1.9 µM.
